Experimental data from patent US20150344570A1 (published 2015).

B1: GpH7-A5/GpH7-B3 variant K334_12R/GpL16-k0 (antibody, human IgG1, kappa)
heavy 1: not shown
heavy 2: not shown
light: DIVMTQSPLSLPVTPGEPASISCQASESLVHSNRNTYLHWYLQKPGQSPQLLIYKVSNRFSGVPDRFSGSGSGTDFTLKISRVEAEDVGVYYCSQNTHVPPTFGQGTKVEIERTVAAPSVFIFPPSDEQLKSGTASVVCLLNNFYPREAKVQWKVDNALQSGNSQESVTEQDSKDSTYSLSSTLTLSKADYEKHKVYACEVTHQGLSSPVTKSFNRGEC
notes: also called He Ab K334_12R
B2: GpH7-A5/GpH7-B3 variant K334_20W/GpL16-k0 (antibody, human IgG1, kappa)
heavy 1: not shown
heavy 2: not shown
light: DIVMTQSPLSLPVTPGEPASISCQASESLVHSNRNTYLHWYLQKPGQSPQLLIYKVSNRFSGVPDRFSGSGSGTDFTLKISRVEAEDVGVYYCSQNTHVPPTFGQGTKVEIERTVAAPSVFIFPPSDEQLKSGTASVVCLLNNFYPREAKVQWKVDNALQSGNSQESVTEQDSKDSTYSLSSTLTLSKADYEKHKVYACEVTHQGLSSPVTKSFNRGEC
notes: also called He Ab K334_20W
B3: GpH7-A5/GpH7-B3 variant L234_03V/GpL16-k0 (antibody, human IgG1, kappa)
heavy 1: not shown
heavy 2: not shown
light: DIVMTQSPLSLPVTPGEPASISCQASESLVHSNRNTYLHWYLQKPGQSPQLLIYKVSNRFSGVPDRFSGSGSGTDFTLKISRVEAEDVGVYYCSQNTHVPPTFGQGTKVEIERTVAAPSVFIFPPSDEQLKSGTASVVCLLNNFYPREAKVQWKVDNALQSGNSQESVTEQDSKDSTYSLSSTLTLSKADYEKHKVYACEVTHQGLSSPVTKSFNRGEC
notes: also called He Ab L234_03V
B4: GpH7-A5/GpH7-B3 variant L234_04F/GpL16-k0 (antibody, human IgG1, kappa)
heavy 1: not shown
heavy 2: not shown
light: DIVMTQSPLSLPVTPGEPASISCQASESLVHSNRNTYLHWYLQKPGQSPQLLIYKVSNRFSGVPDRFSGSGSGTDFTLKISRVEAEDVGVYYCSQNTHVPPTFGQGTKVEIERTVAAPSVFIFPPSDEQLKSGTASVVCLLNNFYPREAKVQWKVDNALQSGNSQESVTEQDSKDSTYSLSSTLTLSKADYEKHKVYACEVTHQGLSSPVTKSFNRGEC
notes: also called He Ab L234_04F
B5: GpH7-A5/GpH7-B3 variant L234_06M/GpL16-k0 (antibody, human IgG1, kappa)
heavy 1: not shown
heavy 2: not shown
light: DIVMTQSPLSLPVTPGEPASISCQASESLVHSNRNTYLHWYLQKPGQSPQLLIYKVSNRFSGVPDRFSGSGSGTDFTLKISRVEAEDVGVYYCSQNTHVPPTFGQGTKVEIERTVAAPSVFIFPPSDEQLKSGTASVVCLLNNFYPREAKVQWKVDNALQSGNSQESVTEQDSKDSTYSLSSTLTLSKADYEKHKVYACEVTHQGLSSPVTKSFNRGEC
notes: also called He Ab L234_06M
B6: GpH7-A5/GpH7-B3 variant L234_07I/GpL16-k0 (antibody, human IgG1, kappa)
heavy 1: not shown
heavy 2: not shown
light: DIVMTQSPLSLPVTPGEPASISCQASESLVHSNRNTYLHWYLQKPGQSPQLLIYKVSNRFSGVPDRFSGSGSGTDFTLKISRVEAEDVGVYYCSQNTHVPPTFGQGTKVEIERTVAAPSVFIFPPSDEQLKSGTASVVCLLNNFYPREAKVQWKVDNALQSGNSQESVTEQDSKDSTYSLSSTLTLSKADYEKHKVYACEVTHQGLSSPVTKSFNRGEC
notes: also called He Ab L234_07I
B7: GpH7-A5/GpH7-B3 variant L234_10E/GpL16-k0 (antibody, human IgG1, kappa)
heavy 1: not shown
heavy 2: not shown
light: DIVMTQSPLSLPVTPGEPASISCQASESLVHSNRNTYLHWYLQKPGQSPQLLIYKVSNRFSGVPDRFSGSGSGTDFTLKISRVEAEDVGVYYCSQNTHVPPTFGQGTKVEIERTVAAPSVFIFPPSDEQLKSGTASVVCLLNNFYPREAKVQWKVDNALQSGNSQESVTEQDSKDSTYSLSSTLTLSKADYEKHKVYACEVTHQGLSSPVTKSFNRGEC
notes: also called He Ab L234_10E
B8: GpH7-A5/GpH7-B3 variant L234_15Y/GpL16-k0 (antibody, human IgG1, kappa)
heavy 1: not shown
heavy 2: not shown
light: DIVMTQSPLSLPVTPGEPASISCQASESLVHSNRNTYLHWYLQKPGQSPQLLIYKVSNRFSGVPDRFSGSGSGTDFTLKISRVEAEDVGVYYCSQNTHVPPTFGQGTKVEIERTVAAPSVFIFPPSDEQLKSGTASVVCLLNNFYPREAKVQWKVDNALQSGNSQESVTEQDSKDSTYSLSSTLTLSKADYEKHKVYACEVTHQGLSSPVTKSFNRGEC
notes: also called He Ab L234_15Y
B9: GpH7-A5/GpH7-B3 variant L328_03V/GpL16-k0 (antibody, human IgG1, kappa)
heavy 1: not shown
heavy 2: not shown
light: DIVMTQSPLSLPVTPGEPASISCQASESLVHSNRNTYLHWYLQKPGQSPQLLIYKVSNRFSGVPDRFSGSGSGTDFTLKISRVEAEDVGVYYCSQNTHVPPTFGQGTKVEIERTVAAPSVFIFPPSDEQLKSGTASVVCLLNNFYPREAKVQWKVDNALQSGNSQESVTEQDSKDSTYSLSSTLTLSKADYEKHKVYACEVTHQGLSSPVTKSFNRGEC
notes: also called He Ab L328_03V
B10: GpH7-A5/GpH7-B3 variant L328_10E/GpL16-k0 (antibody, human IgG1, kappa)
heavy 1: not shown
heavy 2: not shown
light: DIVMTQSPLSLPVTPGEPASISCQASESLVHSNRNTYLHWYLQKPGQSPQLLIYKVSNRFSGVPDRFSGSGSGTDFTLKISRVEAEDVGVYYCSQNTHVPPTFGQGTKVEIERTVAAPSVFIFPPSDEQLKSGTASVVCLLNNFYPREAKVQWKVDNALQSGNSQESVTEQDSKDSTYSLSSTLTLSKADYEKHKVYACEVTHQGLSSPVTKSFNRGEC
notes: also called He Ab L328_10E
B11: GpH7-A5/GpH7-B3 variant L328_14T/GpL16-k0 (antibody, human IgG1, kappa)
heavy 1: not shown
heavy 2: not shown
light: DIVMTQSPLSLPVTPGEPASISCQASESLVHSNRNTYLHWYLQKPGQSPQLLIYKVSNRFSGVPDRFSGSGSGTDFTLKISRVEAEDVGVYYCSQNTHVPPTFGQGTKVEIERTVAAPSVFIFPPSDEQLKSGTASVVCLLNNFYPREAKVQWKVDNALQSGNSQESVTEQDSKDSTYSLSSTLTLSKADYEKHKVYACEVTHQGLSSPVTKSFNRGEC
notes: also called He Ab L328_14T
B12: GpH7-A5/GpH7-B3 variant L328_19Q/GpL16-k0 (antibody, human IgG1, kappa)
heavy 1: not shown
heavy 2: not shown
light: DIVMTQSPLSLPVTPGEPASISCQASESLVHSNRNTYLHWYLQKPGQSPQLLIYKVSNRFSGVPDRFSGSGSGTDFTLKISRVEAEDVGVYYCSQNTHVPPTFGQGTKVEIERTVAAPSVFIFPPSDEQLKSGTASVVCLLNNFYPREAKVQWKVDNALQSGNSQESVTEQDSKDSTYSLSSTLTLSKADYEKHKVYACEVTHQGLSSPVTKSFNRGEC
notes: also called He Ab L328_19Q
B13: GpH7-A5/GpH7-B3 variant L328_20W/GpL16-k0 (antibody, human IgG1, kappa)
heavy 1: not shown
heavy 2: not shown
light: DIVMTQSPLSLPVTPGEPASISCQASESLVHSNRNTYLHWYLQKPGQSPQLLIYKVSNRFSGVPDRFSGSGSGTDFTLKISRVEAEDVGVYYCSQNTHVPPTFGQGTKVEIERTVAAPSVFIFPPSDEQLKSGTASVVCLLNNFYPREAKVQWKVDNALQSGNSQESVTEQDSKDSTYSLSSTLTLSKADYEKHKVYACEVTHQGLSSPVTKSFNRGEC
notes: also called He Ab L328_20W
B14: GpH7-A5/GpH7-B3 variant P238_03V/GpL16-k0 (antibody, human IgG1, kappa)
heavy 1: not shown
heavy 2: not shown
light: DIVMTQSPLSLPVTPGEPASISCQASESLVHSNRNTYLHWYLQKPGQSPQLLIYKVSNRFSGVPDRFSGSGSGTDFTLKISRVEAEDVGVYYCSQNTHVPPTFGQGTKVEIERTVAAPSVFIFPPSDEQLKSGTASVVCLLNNFYPREAKVQWKVDNALQSGNSQESVTEQDSKDSTYSLSSTLTLSKADYEKHKVYACEVTHQGLSSPVTKSFNRGEC
notes: also called He Ab P238_03V
B15: GpH7-A5/GpH7-B3 variant P238_04F/GpL16-k0 (antibody, human IgG1, kappa)
heavy 1: not shown
heavy 2: not shown
light: DIVMTQSPLSLPVTPGEPASISCQASESLVHSNRNTYLHWYLQKPGQSPQLLIYKVSNRFSGVPDRFSGSGSGTDFTLKISRVEAEDVGVYYCSQNTHVPPTFGQGTKVEIERTVAAPSVFIFPPSDEQLKSGTASVVCLLNNFYPREAKVQWKVDNALQSGNSQESVTEQDSKDSTYSLSSTLTLSKADYEKHKVYACEVTHQGLSSPVTKSFNRGEC
notes: also called He Ab P238_04F
B16: GpH7-A5/GpH7-B3 variant P238_06M/GpL16-k0 (antibody, human IgG1, kappa)
heavy 1: not shown
heavy 2: not shown
light: DIVMTQSPLSLPVTPGEPASISCQASESLVHSNRNTYLHWYLQKPGQSPQLLIYKVSNRFSGVPDRFSGSGSGTDFTLKISRVEAEDVGVYYCSQNTHVPPTFGQGTKVEIERTVAAPSVFIFPPSDEQLKSGTASVVCLLNNFYPREAKVQWKVDNALQSGNSQESVTEQDSKDSTYSLSSTLTLSKADYEKHKVYACEVTHQGLSSPVTKSFNRGEC
notes: also called He Ab P238_06M
B17: GpH7-A5/GpH7-B3 variant P238_08L/GpL16-k0 (antibody, human IgG1, kappa)
heavy 1: not shown
heavy 2: not shown
light: DIVMTQSPLSLPVTPGEPASISCQASESLVHSNRNTYLHWYLQKPGQSPQLLIYKVSNRFSGVPDRFSGSGSGTDFTLKISRVEAEDVGVYYCSQNTHVPPTFGQGTKVEIERTVAAPSVFIFPPSDEQLKSGTASVVCLLNNFYPREAKVQWKVDNALQSGNSQESVTEQDSKDSTYSLSSTLTLSKADYEKHKVYACEVTHQGLSSPVTKSFNRGEC
notes: also called He Ab P238_08L
B18: GpH7-A5/GpH7-B3 variant P238_10E/GpL16-k0 (antibody, human IgG1, kappa)
heavy 1: not shown
heavy 2: not shown
light: DIVMTQSPLSLPVTPGEPASISCQASESLVHSNRNTYLHWYLQKPGQSPQLLIYKVSNRFSGVPDRFSGSGSGTDFTLKISRVEAEDVGVYYCSQNTHVPPTFGQGTKVEIERTVAAPSVFIFPPSDEQLKSGTASVVCLLNNFYPREAKVQWKVDNALQSGNSQESVTEQDSKDSTYSLSSTLTLSKADYEKHKVYACEVTHQGLSSPVTKSFNRGEC
notes: also called He Ab P238_10E
B19: GpH7-A5/GpH7-B3 variant P238_15Y/GpL16-k0 (antibody, human IgG1, kappa)
heavy 1: not shown
heavy 2: not shown
light: DIVMTQSPLSLPVTPGEPASISCQASESLVHSNRNTYLHWYLQKPGQSPQLLIYKVSNRFSGVPDRFSGSGSGTDFTLKISRVEAEDVGVYYCSQNTHVPPTFGQGTKVEIERTVAAPSVFIFPPSDEQLKSGTASVVCLLNNFYPREAKVQWKVDNALQSGNSQESVTEQDSKDSTYSLSSTLTLSKADYEKHKVYACEVTHQGLSSPVTKSFNRGEC
notes: also called He Ab P238_15Y
B20: GpH7-A5/GpH7-B3 variant P271_02A/GpL16-k0 (antibody, human IgG1, kappa)
heavy 1: not shown
heavy 2: not shown
light: DIVMTQSPLSLPVTPGEPASISCQASESLVHSNRNTYLHWYLQKPGQSPQLLIYKVSNRFSGVPDRFSGSGSGTDFTLKISRVEAEDVGVYYCSQNTHVPPTFGQGTKVEIERTVAAPSVFIFPPSDEQLKSGTASVVCLLNNFYPREAKVQWKVDNALQSGNSQESVTEQDSKDSTYSLSSTLTLSKADYEKHKVYACEVTHQGLSSPVTKSFNRGEC
notes: also called He Ab P271_02A
B21: GpH7-A5/GpH7-B3 variant P271_03V/GpL16-k0 (antibody, human IgG1, kappa)
heavy 1: not shown
heavy 2: not shown
light: DIVMTQSPLSLPVTPGEPASISCQASESLVHSNRNTYLHWYLQKPGQSPQLLIYKVSNRFSGVPDRFSGSGSGTDFTLKISRVEAEDVGVYYCSQNTHVPPTFGQGTKVEIERTVAAPSVFIFPPSDEQLKSGTASVVCLLNNFYPREAKVQWKVDNALQSGNSQESVTEQDSKDSTYSLSSTLTLSKADYEKHKVYACEVTHQGLSSPVTKSFNRGEC
notes: also called He Ab P271_03V
B22: GpH7-A5/GpH7-B3 variant P271_14T/GpL16-k0 (antibody, human IgG1, kappa)
heavy 1: not shown
heavy 2: not shown
light: DIVMTQSPLSLPVTPGEPASISCQASESLVHSNRNTYLHWYLQKPGQSPQLLIYKVSNRFSGVPDRFSGSGSGTDFTLKISRVEAEDVGVYYCSQNTHVPPTFGQGTKVEIERTVAAPSVFIFPPSDEQLKSGTASVVCLLNNFYPREAKVQWKVDNALQSGNSQESVTEQDSKDSTYSLSSTLTLSKADYEKHKVYACEVTHQGLSSPVTKSFNRGEC
notes: also called He Ab P271_14T

target: T1, FcγRIa (human, UniProt P12314 16-292); assay: SPR (Biacore); He Ab relative to HeCon Ab = 100
T1 construct: extracellular domain; also called FcgRI; 1a
T1 sequence (P12314 16-292): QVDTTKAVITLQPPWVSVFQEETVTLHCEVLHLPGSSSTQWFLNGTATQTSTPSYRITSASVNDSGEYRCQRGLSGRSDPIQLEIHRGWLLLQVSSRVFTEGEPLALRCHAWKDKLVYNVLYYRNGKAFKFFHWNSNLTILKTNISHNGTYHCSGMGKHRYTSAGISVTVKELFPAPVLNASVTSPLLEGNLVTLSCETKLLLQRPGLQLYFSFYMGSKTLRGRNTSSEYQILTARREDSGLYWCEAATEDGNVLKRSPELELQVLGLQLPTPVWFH
Summary of the method: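 FcγR flowed over antibodies bound to immobilized antigen peptide (CM5 or SA chip), 25° C, HBS-EP+.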

| He/Con_1a | Binder |
| --- | --- |
| 104 % of control | B1 |
| 106 % of control | B2 |
| 104 % of control | B3 |
| 101 % of control | B4 |
| 104 % of control | B5 |
| 103 % of control | B6 |
| 100 % of control | B7 |
| 100 % of control | B8 |
| 101 % of control | B9 |
| 101 % of control | B10 |
| 100 % of control | B11 |
| 101 % of control | B12 |
| 103 % of control | B13 |
| 100 % of control | B14 |
| 101 % of control | B15 |
| 102 % of control | B16 |
| 101 % of control | B17 |
| 102 % of control | B18 |
| 101 % of control | B19 |
| 104 % of control | B20 |
| 102 % of control | B21 |
| 102 % of control | B22 |
